The MegaScale stability set (Tsuboyama et al. 2023)

B1: EEHEE_rd4_0469 (parent)
chain: ITIHVNGVTYHFDNPEEAEKFAQKMAKTYQLKMEIHNGEFHME

Variants of: B1
Assay: folding stability dG (cDNA display proteolysis); higher = more stable
Details: PBS, room temperature

Folding stability dG [kcal/mol] of substitutions, site by site:
K24: M 1.41, R 1.31, V 1.29, I 1.41, Q 1.2, N 0.976, A 1.11, F 1.99, G 0.646, L 1.48, E 1.39, D 1.09, H 1.51, T 1.1, P -0.407, Y 2.27, W 2.29, S 0.939
T28: E 2, V 1.22, S 0.87, M 1.65, R 1.65, L 1.97, G 0.636, N 1.24, A 1.26, I 1.6, D 1.87, H 1.45, K 1.69, P 0.094, W 1.95, F 1.67, Q 1.51, Y 1.91
A26: Q 0.97, H 0.851, R 1.1, F 1.19, E 1.12, T 0.708, V 0.794, G 0.919, M 1.46, N 0.766, Y 1.45, K 1.01, P 0.076, S 1.04, L 1.25, W 1.63, I 1.31, D 0.963
A18: D -0.444, W 0.81, L 0.747, C 1.56, S 0.425, Y 0.556, I 0.525, M 0.753, F 1, P -0.237, N -0.125, K 0.431, T 0.325, G 1.03, V 0.798, E 0.011, Q 0.282, R 0.63, H 0.114
L31: A 0.799, H 0.984, K 0.692, S 0.767, P 1.13, R 0.214, E 1.29, G 1.02, D 1.3, W 0.829, Y 1.14, M 1.01, T 0.775, Q 0.833, C 2.3, F 1.1, I 1.15, N 1, V 1.28
E16: R 1.21, M 1.15, V 1.18, T 1.09, Y 1.19, W 1.16, N 1.03, S 1.12, L 1.19, Q 1.1, K 1.18, P 0.698, I 1.18
E19: F 1.63, T 1.3, R 1.41, K 1.27, M 1.61, D 1.07, H 1.38, L 1.61, Y 1.6, I 1.5, G 1.03, S 1.16, P -0.375, Q 1.26, A 1.35, W 1.82, V 1.47, N 1.32
K27: D 1.5, R 1.09, P 1.22, Q 1.24, W 1.38, H 0.969, I 1.34, A 1.32, N 0.922, Y 1.27, L 1.34, M 1.22, G 0.713, F 1.25, T 1.02, E 1.51, S 1, V 1.22
F21: D -0.653, K -0.758, C 1.38, I 0.089, G -0.582, S -0.647, L 0.173, E -0.052, M 0.206, A 0.133, H 0.061, Y 0.564, V 0.092, T -0.122, N -0.383, Q -0.188, W 1.2, R -0.383
M33: T 0.664, A 0.574, H 0.293, D 0.558, F 1.18, S 0.431, P 0.368, W 1.36, V 1.46, Y 1.11, C 2.62, Q 0.352, N 0.297, L 1.43, G 0.452, K -0.407, E 0.678, I 1.6
Q23: C 2.52, M 1.29, S 1.05, G 0.566, Y 1.28, K 1.07, L 1.25, E 1.14, H 0.988, W 1.36, R 1.35, V 1.26, D 0.989, T 1.19, A 1.24, F 1.19, I 1.27, N 0.986
K32: R 0.848, G 1.13, T 1.51, H 1.48, F 1.44, A 1.37, N 1.28, L 1.52, Y 1.58, W 1.54, I 1.66, Q 1.45, S 1.39, P 1.09, E 1.48, M 1.44, D 1.31, V 1.62
M25: V 0.732, R 0.041, P -0.979, E 0.109, T 0.301, N 0.081, Y 0.664, D -0.066, L 1.12, F 0.692, C 1.66, W 1.07, A 0.464, H 0.288, Q 0.418, K -0.083, I 0.968, S 0.059, G -0.244
E34: F 1.82, C 2.43, G 0.776, D 0.739, H 1.41, L 1.26, A 1.03, K 1.17, I 1.67
Y29: F 0.965, G 1.59, I 0.788, E 1.6, R 0.657, M 0.899, C 2.3, Q 1.05, A 1.07, T 1.05, N 1.29, S 1.05, D 1.59, W 0.793, K 0.768, H 1.45, V 0.848, L 1.17, P 1.7
E17: Y 0.867, M 1.07, P 0.444, F 0.96, A 1.15, C 1.81, G 0.714, W 1.01, K 1.14, T 1.07, S 1.15, L 1.19, Q 1.03, I 1.09, V 1.02, N 0.912, D 1.06, R 1.07, H 0.948
K20: P 0.383, N 1.02, I 1.18, T 1.19, Q 1.17, E 1.11, D 1.03, H 1.15, W 1.02, M 1.15, V 1.17, A 1.21, F 1.1, L 1.23, G 0.79, R 1.17, C 2.01, S 1.15, Y 1.09
Q30: A 1.02, D 1.08, G 1.5, T 0.699, K 1.12, P 1.53, I 0.708, F 1.14, H 1.43, V 0.688, Y 1.14, L 0.853, E 1.21, N 1.17, S 0.808, W 1.11, M 0.881, R 0.814
A22: E 0.335, Q 0.662, V 1.4, F 0.747, L 0.879, I 1.46, T 0.747, S 0.704, W 0.941, G 0.3, R 1.06, M 1.19, Y 1.01, K 0.843, N 0.367, D -0.261, C 1.76, H 0.587
